The supplement of paper PMC7125110
± gives the standard error. This sample holds only a part of the variants without activity.

B1: glmS ribozyme (parent)
chain: AUAAAAGCGCCAGAACUACAGAAAUGUAGUUGACGAGGAGGAGGUUUAUCGAAUUUUCGGCGGAUGCCUCCAAA

Legend:
Conditions in all cases: with glucosamine-6-phosphate
[1] = variants of: B1; assay: self-cleavage kobs at 40 uM GlcN6P; higher = faster cleavage; RNA array
Summary of the method: (§1)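 kcat and KM were obtained from weighted Michaelis–Menten fits across concentrations of kobs values. Those came from one- or two-exponential decay fits to per-tile medians normalised to baseline and to non-cleaving reference variants. The variants were barcoded ribozymes transcribed in situ by E. coli RNA polymerase on sequenced MiSeq chips and tracked through a hybridised Cy3 probe at 37 °C, with 40 μM to 10 mM glucosamine-6-phosphate in HEPES/KCl/Mg(OAc)2 buffer flowed in.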

[2] = variants of: B1; assay: self-cleavage kobs at 10000 uM GlcN6P; higher = faster cleavage; RNA array
Summary of the method: as §1

[3] = variants of: B1; assay: self-cleavage kobs at 640 uM GlcN6P; higher = faster cleavage; RNA array
Summary of the method: as §1

[4] = variants of: B1; assay: self-cleavage kobs at 2500 uM GlcN6P; higher = faster cleavage; RNA array
Summary of the method: as §1

[5] = variants of: B1; assay: self-cleavage kobs at 160 uM GlcN6P; higher = faster cleavage; RNA array
Summary of the method: as §1

Row | Variant | self-cleavage kobs at 40 uM GlcN6P [1] | self-cleavage kobs at 10000 uM GlcN6P [2] | self-cleavage kobs at 640 uM GlcN6P [3] | self-cleavage kobs at 2500 uM GlcN6P [4] | self-cleavage kobs at 160 uM GlcN6P [5]
1 | AUAAAAGCGCCAGAACUACAGAAAUGUAGUUGUCGAGGAGGAGGUUUAUGGAAUUUUCGGAGGAUGCCUCCAAA [A33U C50G C61A] | 0.000105 ± 2e-05 s⁻¹ | 0.000139 ± 2.7e-05 s⁻¹ | – | – | –
2 | AUAAAAGCGCCAGAACUACAGAAAUGUAGUUGACGAGGAGGAGCUUUAUCGAAUUUUCGGCGGGUGCCUUCAAA [G44C A64G C70U] | < 1e-05 s⁻¹ | < 1e-05 s⁻¹ | < 1e-05 s⁻¹ | < 1e-05 s⁻¹ | –
3 | AUAAAAGCGCCAGAACUACAGAAAUGUAGUUGAGGAGGAGGAGGUUUAUCGAAUCUUCGGCGGAUGCCUCCAAA [C34G U55C] | < 1e-05 s⁻¹ | < 1e-05 s⁻¹ | < 1e-05 s⁻¹ | < 1e-05 s⁻¹ | < 1e-05 s⁻¹
4 | AUAAAAGCGCCAGAACUACAGAAAUGUAGUUGACGAGGAGGAGGGUUAUAGAAUUUUCGGCGGAGGCCUCCAAA [U45G C50A U65G] | < 1e-05 s⁻¹ | – | < 1e-05 s⁻¹ | – | –
5 | AUAAAAGGGCCAGAACUACAGAAAUGUAGUUGACGAGGAGGAGGUUUAUCGAAUUUUCGGCGGAGGCAUCCAAA [C8G U65G C68A] | < 1e-05 s⁻¹ | – | – | < 1e-05 s⁻¹ | –
6 | AUAAAAGCGCCAGAACUACAGAAAUGUAGUUGACGAGGAGAAGGUUUAUUGAAUUUUCAGCGGAUGCCUCCAAA [G41A C50U G59A] | < 1e-05 s⁻¹ | < 1e-05 s⁻¹ | – | – | –
7 | AUAAAAACGCCAUAACUACAGAAAUGUAGUUGACGAGGAGGAGGUUUAUCGAAUCUUCGGCGGAUGCCUCCAAA [G7A G13U U55C] | < 1e-05 s⁻¹ | < 1e-05 s⁻¹ | – | – | –
8 | AUAAAAGCGCGAGAACUACAGAAAUGUAGGUGACGCGGAGGAGGUUUAUCGAAUUUUCGGCGGUCGCCUCCAAA [C11G U30G A36C A64U U65C] | < 1e-05 s⁻¹ | < 1e-05 s⁻¹ | < 1e-05 s⁻¹ | < 1e-05 s⁻¹ | < 1e-05 s⁻¹
9 | AUAAAAGCGCCAGAACUACAGAAAUGUAGUUGACGAGGAGGACGUUUAUCGAAUUUUCGGCGGAUGCCUCAAAA [G43C C71A] | < 1e-05 s⁻¹ | – | < 1e-05 s⁻¹ | < 1e-05 s⁻¹ | < 1e-05 s⁻¹
10 | AUAAAAGCGCCACAACUACAGAAAUGUAGUUGACGAGGCGGAGGUUGAUCGAAUUUUCGGCGGAUGCCUCCAAA [G13C A39C U47G] | < 1e-05 s⁻¹ | – | – | < 1e-05 s⁻¹ | < 1e-05 s⁻¹
11 | AUAAAAGCCCCAGAACUACAGAAAUGUAGUUGACGAGGAGGAGGUUUAUCGAAUUUUCGGCGGAUUCCUCCAAA [G9C G66U] | < 1e-05 s⁻¹ | < 1e-05 s⁻¹ | < 1e-05 s⁻¹ | < 1e-05 s⁻¹ | < 1e-05 s⁻¹
12 | AUAAAAGCGCCAGAACUACAGAAAUGUAGUUGACGAGGAGGAGGUUUAUCGAAUUUUCGUCCGCUGCCUCCAAA [G60U G62C A64C] | < 1e-05 s⁻¹ | – | < 1e-05 s⁻¹ | – | –
13 | AUAAAAGGGCCAGAACUACAGAAAUGUAGUGGACGAGGAGGAGGUUUAUCGAAUUUUCGGCGGAUGCCUCCAAA [C8G U31G] | < 1e-05 s⁻¹ | – | < 1e-05 s⁻¹ | < 1e-05 s⁻¹ | < 1e-05 s⁻¹
14 | AUAAAAGCGCCAGAACUACAGAAAUGUAGUUGACGAUGAGGAGGUUUAUCGAAGUUUCGGCGGUUGCCUCCAAA [G37U U54G A64U] | < 1e-05 s⁻¹ | < 1e-05 s⁻¹ | – | – | –
15 | AUAAAAGCGCCAGAACUACAGAAAUGUAGUUGACGAGGAGGAGGUUUAUGGAAUUUUCGGCGGAUGCCACCAAA [C50G U69A] | 0.000132 ± 2.4e-05 s⁻¹ | 7.99e-05 ± 1.5e-05 s⁻¹ | 0.000587 ± 0.0001 s⁻¹ | 0.000186 ± 2.8e-05 s⁻¹ | 0.000172 ± 2.9e-05 s⁻¹
16 | AUAAAAGCGCCAGAACUACAGAAAUGUAGUUGACGAGGAGGAGGUGUAUCGAAUUUUCGCCGGAUGCCUCCAAA [U46G G60C] | < 1e-05 s⁻¹ | < 1e-05 s⁻¹ | < 1e-05 s⁻¹ | < 1e-05 s⁻¹ | < 1e-05 s⁻¹
17 | AUAAAGGCGCCAGAACUACAGAAAUGUAGUUGACGAGGAGGAGAUUUAUCGAAUUUUCGGCGGAUGCCUCCAAA [A6G G44A] | < 1e-05 s⁻¹ | < 1e-05 s⁻¹ | < 1e-05 s⁻¹ | < 1e-05 s⁻¹ | < 1e-05 s⁻¹
18 | AUAAAAGCGCCAGAACUACAGAAAUGUAGUUGACAAGGACGAGGUUUGUCGAAUUUUCGGCUCAUGCCUCCAAA [G35A G40C A48G G62U G63C] | < 1e-05 s⁻¹ | – | – | – | –
19 | AUAAAAGCGCCAGAACUACAGAAAUGUAGUUGACGAGGAGGAGGUUUAUGGAAUUUUCGGCAGAUGCAUCCAAA [C50G G62A C68A] | 6.73e-05 ± 1.6e-05 s⁻¹ | 9.9e-05 ± 2.3e-05 s⁻¹ | – | – | –
20 | AUAAAAGCGCCAGAACUACAGAAAUGUAGUUGACGAGGAGGAGGUUUAUGGAAGUUUCGACGGAUGCCUGCAAA [C50G U54G G60A C70G] | < 1e-05 s⁻¹ | – | < 1e-05 s⁻¹ | – | –
21 | AUAAAAGCGCCAGAACUACAGAAAUGUAGUUGACGAGGAUGAGGGUUAUCGAAUUUUCGGCGGAUGUCUCCAAA [G40U U45G C67U] | < 1e-05 s⁻¹ | 5.49e-05 ± 1.2e-05 s⁻¹ | – | – | < 1e-05 s⁻¹
22 | AUAAAAGCGCCAGAACUACAGAAAUGUAGGUGACGAGGAGGAGGUUUAUCGAAUUUUCGGAGGAUGCCUCCAAA [U30G C61A] | < 1e-05 s⁻¹ | < 1e-05 s⁻¹ | – | – | –
23 | AUAAAAGCGCCAGAACUACAGAAAUGUAGUUGACGAGGACGAGGUUUAUCGAAUUUUCGGCUGAUGCCUCCAAA [G40C G62U] | < 1e-05 s⁻¹ | < 1e-05 s⁻¹ | < 1e-05 s⁻¹ | < 1e-05 s⁻¹ | < 1e-05 s⁻¹
24 | AUAAAAGCGCCAGAACUACAGAAAUGUAGUUGACGAGAAGGAGGUUUAUCGAAUUUACGGCGGACGCCUCCAAA [G38A U57A U65C] | < 1e-05 s⁻¹ | – | – | – | –
25 | AUAAACGCGCCAGAACUACAGAAAUGUAGUUGACGAGGAAGAGGUUUAUCGAAUUUUCGGCGGAUGCCUCCAAA [A6C G40A] | < 1e-05 s⁻¹ | 2.46e-05 ± 9.8e-06 s⁻¹ | – | – | < 1e-05 s⁻¹
